Experimental data reported in US7825096B2, “O6-alkylguanine-DNA alkyltransferase inactivators and beta-glucuronidase cleavable prodrugs” (The United States of America as represented by the …, priority 2004, dated 2010).

B1: E. coli β-glucuronidase (Escherichia coli K-12) (protein)
chain: MLRPVETPTREIKKLDGLWAFSLDRENCGIDQRWWESALQESRAIAVPGSFNDQFADADIRNYAGNVWYQREVFIPKGWAGQRIVLRFDAVTHYGKVWVNNQEVMEHQGGYTPFEADVTPYVIAGKSVRITVCVNNELNWQTIPPGMVITDENGKKKQSYFHDFFNYAGIHRSVMLYTTPNTWVDDITVVTHVAQDCNHASVDWQVVANGDVSVELRDADQQVVATGQGTSGTLQVVNPHLWQPGEGYLYELCVTAKSQTECDIYPLRVGIRSVAVKGEQFLINHKPFYFTGFGRHEDADLRGKGFDNVLMVHDHALMDWIGANSYRTSHYPYAEEMLDWADEHGIVVIDETAAVGFNLSLGIGFEAGNKPKELYSEEAVNGETQQAHLQAIKELIARDKNHPSVVMWSIANEPDTRPQGAREYFAPLAEATRKLDPTRPITCVNVMFCDAHTDTISDLFDVLCLNRYYGWYVQSGDLETAEKVLEKELLAWQEKLHQPIIITEYGVDTLAGLHSMYTDMWSEEYQCAWLDMYHRVFDRVSAVVGEQVWNFADFATSQGILRVGGNKKGIFTRDRKPKSAAFLLQKRWTGMNFGEKPQQGGKQ
notes: purchased Sigma type IX-A
B2: bovine liver β-glucuronidase (Bos taurus) (protein)
chain: MLRGSAGAWAVLGPLLWGCGLSLLQGGMLYPRESRSRERKELDGLWSFRADFSDNRRQGFEQQWYRAPLRESGPTLDMPVPSSFNDVGQDGQLRSFVGWVWYEREITLPQRWTEDLGTRVVLRIGSAHYYAIVWVNGVHVLEHEGGHLPFEADISKLVQSGPLSSCRITIAINNTLSPHTLPPGTILYKTDPSMYPKGYFVQNTKFDFFNYAGLHRSVLLYTTPTTYIDDITVTTDMDQDIGLVNYQIIVQGSDHFQVDVSLLDEEGKVMAKGAGAEGQLQVPSAHLWWPYLMHEHPAYLYSLEVKLTAQTAVGPVSDFYTLPVGIRTVAVTKSQFLINGKPFYFRGVNKHEDADIRGKGFDWPLLVKDFNLLRWLGANAFRTSHYPYSEEVLQLCDRYGIVVIDESPGVGIVLVESFSNVSLQHHLEVMEEMIRRDKNHPAVVMWSLANEPASFLKPAGYYFKTLIAHTKALDPSRPVTFVTNTNYEADLGAPYVDIICVNSYYSWYHDYGHMEVIQLQLATQFENWYKAYQKPMIQSEYGADAIEGFHEDPPLMFSEEYQKGLLQQYHVVLDQKRKEYVVGELIWNFADFMTNQSPVRMIGNRKGIFTRQRQPKSAAFLLRERYWKLANETRYQRSAVTSQCVGSGLFTV
notes: bovine liver β-glucuronidase (Sigma type B-10) (10.2 units/mg of protein); purchased Sigma type B-10; host or cells: bovine liver

Tests used:
Format in all cases: biochemical
[1] = substrate: O=C(Nc1nc(OCc2ccccc2)c2nc[nH]c2n1)OCc1ccc(O[C@@H]2O[C@H](C(=O)O)[C@@H](O)[C@H](O)[C@H]2O)c([N+](=O)[O-])c1; experiment: Enzymatic hydrolysis of prodrugs by E. coli β-glucuronidase in MOPS buffer; details: other: E. coli β-glucuronidase, 37° C., pH 7.0
Procedure: (§1) The enzymatic hydrolysis of the prodrugs was investigated with both E. coli and bovine liver β-glucuronidase in MOPS buffer at pH 7.0. Prodrugs and p-nitrobenzyl alcohol (HPLC internal standard) were dissolved in the MOPS buffer (pH 7.0) at 37° C. Enzymatic cleavage was initiated by adding 0.2 Fishman units of E. coli β-glucuronidase (Sigma type IX-A) (42.8 units/mg of protein) or 10 Fishman units of bovine liver β-glucuronidase (Sigma type B-10) (10.2 units/mg of protein) to the incubation buffer. Aliquots (100 μL) of the reaction mixture were withdrawn at various times and were mixed with 100 μL of acetonitrile/0.1 M TEAA (6:4) to quench the enzymatic reaction. Prodrug and product concentrations were determined by HPLC. For determination of enzyme kinetic parameters, prodrug solutions at concentrations between 5 and 300 μM were incubated with a fixed amount of enzyme. Aliquots were withdrawn at time intervals varying from 1 to 20 min and the reactions were quenched as described above. Initial reaction velocities were determined at each substrate concentration. Non-linear regression methods were used to determine KM and Vmax values. Data were processed with Prism 3.0 software.

[2] = substrate: O=C(Nc1nc(OCc2ccccc2)c2ncn([C@H]3C[C@H](O)[C@@H](CO)O3)c2n1)OCc1ccc(O[C@@H]2O[C@H](C(=O)O)[C@@H](O)[C@H](O)[C@H]2O)c([N+](=O)[O-])c1; experiment: as above; details: other: E. coli β-glucuronidase, 37° C., pH 7.0
Procedure: as §1

[3] = substrate: O=C(Nc1nc(OCc2ccccc2)c2nc[nH]c2n1)OCc1ccc(O[C@@H]2O[C@H](C(=O)O)[C@@H](O)[C@H](O)[C@H]2O)c([N+](=O)[O-])c1; experiment: Enzymatic hydrolysis of prodrugs by bovine liver β-glucuronidase in MOPS buffer; details: other: bovine liver β-glucuronidase, 37° C., pH 7.0
Procedure: as §1

[4] = substrate: O=C(Nc1nc(OCc2ccccc2)c2ncn([C@H]3C[C@H](O)[C@@H](CO)O3)c2n1)OCc1ccc(O[C@@H]2O[C@H](C(=O)O)[C@@H](O)[C@H](O)[C@H]2O)c([N+](=O)[O-])c1; experiment: as above; details: other: bovine liver β-glucuronidase, 37° C., pH 7.0
Procedure: as §1

Protein	Km [1]	Vmax [1]	Km [2]	Vmax [2]	Km [3]	Km [4]
B1	17.0 µM	466000 µmol/mg/h	41.1 µM	677000 µmol/mg/h		
B2					244 µM	362 µM
